Experiments:
Test in all cases: SPR
[1] = molecular target: RNF130-A1
[2] = molecular target: ZNRF3-A10
[3] = molecular target: RNF43-A7

B1: human RNF130 (GOLIATH) extracellular domain (domain or fragment)
chain: DNASQEYYTALINVTVQEPGRGAPLTFRIDRGRYGLDSPKAEVRGQVLAPLPLHGVADHLGCDPQTRFFVPPNIKQWIALLQRGNCTFKEKISRAAFHNAVAVVIYNNKSKEEPVTMTHPGTGDIIAVMITELRGKDILSYLEKNISVQMTIAVGTRMPPKNFSRGS
modifications: biotinylated (BirA ligase)
Kd [1]: 8.2 nM

B2: human ZNRF3 extracellular domain (domain or fragment)
chain: KETAFVEVVLFESSPSGDYTTYTTGLTGRFSRAGATLSAEGEIVQMHPLGLCNNNDEEDLYEYGWVGVVKLEQPELDPKPCLTVLGKAKRAVQRGATAVIFDVSENPEAIDQLNQGSEDPLKRPVVYVKGADAIKLMNIVNKQKVARARIQHRPPRQPTEYFDM
modifications: biotinylated (BirA ligase)
Kd [2]: 0.7 nM

B3: human RNF43 extracellular domain (domain or fragment)
chain: GFGRTGLVLAAAVESERSAEQKAIIRVIPLKMDPTGKLNLTLEGVFAGVAEITPAEGKLMQSHPLYLCNASDDDNLEPGFISIVKLESPRRAPRPCLSLASKARMAGERGASAVLFDITEDRAAAEQLQQPLGLTWPVVLIWGNDAEKLMEFVYKNQKAHVRIELKEPPAWPDY
modifications: biotinylated (BirA ligase)
Kd [3]: 3.8 nM
